Test results taken from patent US20240124543A1.
Where two headings read alike, the source gives them in different places.

Assays:
Assay in all cases: cell-based or functional assay
[1] = molecular target: IL2Rαβγ on CTLL2 cells
[2] = molecular target: IL2Rβ and common γ chain on 32Dβ cells
[3] = molecular target: IL2Rβ and common γ chain on 32Dβ cells; remark: listed apart in the source
[4] = molecular target: TGFβ1 (R&D systems) (UniProt P01137)
[5] = molecular target: TGFβ1 (R&D systems) (UniProt P01137); remark: listed apart in the source

UniProt P01137, sequence (P01137 279-390 limits assumed): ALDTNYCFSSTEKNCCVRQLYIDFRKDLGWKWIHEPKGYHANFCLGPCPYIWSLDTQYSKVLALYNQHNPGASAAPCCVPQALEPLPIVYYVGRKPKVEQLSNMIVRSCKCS

| EC50, CTLL2 cell proliferation (PrestoBlue) [1] | EC50, CTLL2 cell proliferation (WST1) [1] | EC50 (printed EC:), 32Dβ cell proliferation (WST1) [2] | EC50, 32Dβ cell proliferation (WST1) [2] | EC50, 32Dβ cell proliferation (WST1) [3] | IC50, inhibition of TGFβ1 activity in HEK-Blue TGFβ cells [4] | IC50, inhibition of TGFβ1 activity in HEK-Blue TGFβ cells [5] | Substance |
| --- | --- | --- | --- | --- | --- | --- | --- |
| 0.00495 nM | 0.00622 nM | 0.0166 nM | 0.0166 nM | 0.0106 nM | – | – | human recombinant IL-15 (from UniProt P40933 49-162) (ligand) |
| – | – | – | – | – | 0.461 nM | 0.559 nM | Human recombinant TGFβRII/Fc (from UniProt P37173 24-159) (Fc fusion) |
